Assay results reported in patent publication US12365710B2, “HMGB1 protein derivatives for the removal of biofilms” (RESEARCH INSTITUTE AT NATIONWIDE CHILDREN'S HOSPITAL, priority 2018, dated 2025).
Where two headings read alike, the source gives them in different places.

Columns and labels:
UPEC biofilm = assay: in vitro disruption of established biofilms, CLSM and COMSTAT; format: cell-based, Uropathogenic E. coli; conditions: for disruption of established UPEC biofilms: added at 24 h, 16 h exposure, 200 nM unless stated
Description: FIGS. 5A-5E: Anti-biofilm effect of HMGB1 variants on high priority bacterial pathogens. Indicated HMGB1 variants or antibodies against DNABII proteins (α-1HFEc 1gG, 1 μM) were added at 24 h to the respective preformed bacterial biofilms, in vitro. After 16 h of Incubation, biofilms were stained with LIVE/DEAD®, then visualized via confocal laser scanning microscopy. Images were analyzed by COMSTAT to calculate average thickness and comparison to control was plotted. (FIG. 5A) Full-length HMGB1 isoforms (200 nM unless otherwise indicated) added to UPEC, B. cenocepacia, NTHI, or ESKAPE pathogens. 800 nM rHMGB1 and 200 nM mHMGB1 were added for S. aureus (ESKAPE). 800 nM rHMGB1, 800 nM mHMGB1, or 3.3 μM of α-1HFEc 1gG were added for E. faecium (ESKAPE) and were incubated for 1 h as opposed to 16 h to avoid potential degradation by E. faecium proteases. (FIG. 5B) Representative images of UPEC biofilms incubated with increasing concentrations of rHMGB1. (FIG. 5C) Individual domains of HMGB1 (200 nM) were tested for anti-biofilm activity as above (dotted line indicates control values). Bars represent the SEM. Statistical significance compared to control was assessed with unpaired t-tests, *P<0.05. […] (FIGS. 5D-5E) HMGB1 and variants disrupt preformed Klebsiella pneumoniae biofilms. rHMGB1, HMGB1 C45S (mHMGB1), bovine HMGB1 (bHMGB1), B box, B Box C106S (mB Box), A Box, and A+B Box were added (200 nM) at 24 h to preformed K. pneumoniae biofilms. After 16 h of incubation, biofilms were stained with LIVE/DEAD®, then visualized via confocal laser scanning microscopy. Images were analyzed by COMSTAT to calculate average thickness and total biomass. Error bars represent the SEM. ***P<0.0001; ns=not significant.
HMGB1 disrupts pathogenic biofilms: To test the effect of HMGB1 on bacterial biofilms (FIG. 5), Applicant cloned (IMPACT®, NEB Ipswich, MA), expressed (in E. coli), and purified (heparin sepharose chromatography to >95% purity) tagless human recombinant HMGB1 (rHMGB1) and an engineered C45 S variant (mHMGB1) that mimics the reduced form of HMGB1. rHMGB1 readily forms an intramolecular disulfide bond between C23 and C45 that contributes to pro-inflammatory activity whereas mHMGB1 cannot. These HMGB1 isoforms were evaluated for ability to disrupt established biofilms (formed for 24 h prior to addition). After a 16 h exposure to a single dose of rHMGB1 (200 nM; ˜25-fold greater than typical sepsis serum concentration, but not able to directly induce sepsis), biofilms formed by a wide variety of high priority species were stained with LIVE/DEAD®, analyzed using confocal laser scanning microscopy (CLSM) and COMSTAT analysis and compared to control biofilms. […] Preliminary analysis of PTMs by LC-MS/MS analysis (MS Bioworks, LLC Ann Arbor, MI) indicated minimal modification of both rHMGB1 and nHMGB1 (<20% of the observed peptides had any given PTM, FIG. 1C). […] Thus, while there are intrinsic differences in sensitivity among pathogens, the biofilms formed by all of the tested high priority pathogens were susceptible to a single dose of these non-antimicrobial compounds.
HMGB1 domain structure and anti-biofilm activity: Applicant then produced recombinant HMGB1 truncation variants, of 1) the A Box, a self-contained DNA-binding domain (residues 1-89); 2) an A-B Boxes construct (lacks the C tail; residues 1-185); and 3) the B Box (residues 80 to 176, FIGS. 1A and 1C). […] Since only the B Box can modulate DNA bending, without being bound by theory, it was hypothesized that HMGB1 disrupts biofilms at least in part via DNA-binding/bending. As the B Box is reported to contain pro-inflammatory activity, mediated primarily through interactions with TLR4-MD2 that are dependent on residue C106, Applicant created a modified B Box variant (mB Box) with a C106S mutation (FIGS. 1A and 1C).

serum TNF-alpha (TNF-α) = conditions: cited from earlier work

Row | Molecule | disruption of established UPEC biofilms (UPEC biofilm) | average thickness of UPEC biofilm (UPEC biofilm; progressively higher concentrations of rHMGB1, up to 400 nM, monolayer) | amount required to induce sepsis, compared to our doses (serum TNF-alpha (TNF-α); 4 doses in 40 h, LPS-primed mice) | amount required to induce sepsis, compared to our doses (serum TNF-alpha (TNF-α); B Box alone)
1 | rHMGB1: tagless human recombinant full length HMGB1 (1-215) expressed in E. coli | disrupted a UPEC biofilm in a dose-dependent manner | ~1 μm | 2 fold | 
2 | B-linker Box: HMGB1 B Box with N- and C-terminal linker (80-179; 80 to 176 in b258), 97 amino acid (protein, UniProt P09429 80-179, looked up, fragment) PPKGETKKKFKDPNAPKRPPSAFFLFCSEYRPKIKGEHPGLSIGDVAKKLGEMWNNTAADDKQPYEKKAAKLKEKYEKDIAAYRAKGKPDAAKKGVVKAE | retained full anti-biofilm activity |  |  | > 450 fold
